Biological target: the molecule itself
Experiment: cryo-EM structure

B1: RNA polymerase α subunit (natural protein, Spinacia oleracea (spinach), UniProt P06505 1-335, looked up)
chain: MVREKIRVSTQTLQWKCVESRTDSKCLHYGRFILSPLMKGQADTIGIAMRRALLGEIEGTCITRAKSEKIPHEYSTILGIQESVHEILMNLKEIVLRSNLYGTCEASICVRGPRGVTAQDIILPPYVEIVDNTQHIASLTEPIDLCIGLQLERNRGYHIKAPNNFQDGSFPIDALFMPVRNVNHSIHSYGNGNEKQEILFLEIWTNGSLTPKEALYEASRNLIDLLIPFLHAEENVNLEDNQHKVSLPLFTFHNRLAEIRKNKKKIALKFIFIDQLELPPRIYNCLKKSNIHTLLDLLNNSQEDLIKMKHFRIEDVKQIFGTLEKHFVIDLKNKR
binding result: binds

From article PMC11561172 (Nature Communications, 2024)
